Experiment [1] concerns the target memGFP (zebrafish | not stated). The experiment is described as follows: fluorescence cross-correlation spectroscopy.
Experiment [2] has as its target Ror2-mCherry (not stated (xRor2 or zebrafish Ror2 cDNA cloned)). Briefly: fluorescence cross-correlation spectroscopy.
Experiment [3] has as its target mCherry-xRor2 (not stated (prefix x in xRor2; Xenopus from memory)). The experiment is described as follows: FRET or BRET. On the technique in general: In BRET a luciferase serves as donor, and the signal depends on an acceptor being close.
Experiment [4] deals with Ror2-mCherry (not stated (xRor2 or zebrafish Ror2 cDNA cloned)). Briefly: fluorescence cross-correlation spectroscopy. This is another data set of the same source.
Experiment [5] deals with zfRor2-ΔCRD-mCherry (zebrafish). Briefly: fluorescence cross-correlation spectroscopy.
Experiment [6] addresses Ror2-mCherry (not stated (xRor2 or zebrafish Ror2 cDNA cloned)). Briefly: fluorescence cross-correlation spectroscopy. The source holds these as a separate data set.

Like-named read-outs stand apart in the source and are kept apart here. A value given as a limit tells only on which side of the number the result lay.

In experiment [1], cytosolic mCherry displayed a Kd greater than 9300 nM.

B1: zfWnt5b-GFP (ligand)
chain: QLLVVANSWWSLAMNPIQRPEMYIIGAQPLCSQLTGLSQGQRKLCQLYQDHMVYIGEGAKTGIKECQYQFRQRRWNCSTVDNTSVFGRVMHIGSRETAFTYAVSAAGVVNAVSRACREGELSTCGCSRAARPRDLPRDWLWGGCGDNVNYGYRFAREFVDAREREKNYPRGSVEHARTLMNLQNNEAGRMAVYNLANVACKCHGVSGSCSLKTCWLQLADFRRVGEFLKEKYDSAAAMRINRRGKLELVNNRFNPPTGEDLVYIDPSPDYCLRNETTGSLGTQGRLCNKTSEGMDGCELMCCGRGYDQFKTYKHERCHCKFHWCCYVKCKRCTSLVDQFVCK
Consider B1, for which the Kd in experiment [2] is 450 nM; in experiment [4], 3560 nM; in experiment [5] it was greater than 6680 nM; in experiment [6] it was 311 to 476 nM. Also, in experiment [3], the FRET efficiency is 11.3 to 13%.

As a reminder, the Kd is the concentration at which binding is half-saturated. Read a high Kd as weaker binding.

The values are drawn from doi:10.1101/2022.04.07.487468.
